Earlier results in PMC10410519.

Target: Growth hormone receptor (Homo sapiens) (UniProt P10912)
Assay: competition

- Ki: 3.5 nM
Substance: hGH (from UniProt P01241)
